We go through 1 substance from patent US20230119066A1.

Assay [1] concerns the target mouse C-C Motif Chemokine Receptor 8 (mCCR8) (mouse) (UniProt P56484). The assay is described as follows: cell-based or functional assay.
For assay [2] the target is unchanged. The assay is described as follows: flow cytometry on mouse thymic CD4+ cells. On the technique in general: In flow cytometry, cells or beads pass a laser one at a time.
The target is the same in assay [3]. The assay is described as follows: flow cytometry on mCCR8-expressing CHO cells.
Assay [4] shares this target. The assay is described as follows: flow cytometry on activated mouse splenic CD4+ cells.

Chain of mouse C-C Motif Chemokine Receptor 8 (mCCR8) (mouse) (P56484 whole entry): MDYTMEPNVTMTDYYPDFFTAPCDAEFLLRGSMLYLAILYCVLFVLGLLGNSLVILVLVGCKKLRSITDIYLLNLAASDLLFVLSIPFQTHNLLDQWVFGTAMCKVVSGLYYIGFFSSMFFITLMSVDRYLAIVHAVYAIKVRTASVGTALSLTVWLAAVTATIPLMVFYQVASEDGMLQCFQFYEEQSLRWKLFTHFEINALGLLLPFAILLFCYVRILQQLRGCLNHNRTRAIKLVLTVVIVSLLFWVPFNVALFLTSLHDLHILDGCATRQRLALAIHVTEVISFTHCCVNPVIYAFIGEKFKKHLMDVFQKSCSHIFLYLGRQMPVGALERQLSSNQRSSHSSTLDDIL

The EC50 is the concentration that produces a half-maximal response. A higher EC50 goes with weaker potency. For “anti-CCR8-mIgG2a, mouse IgG2a isotype of rat anti-mCCR8 mAb Clone SA214G2 (BioLegend) (antibody)”, in assay [1], the EC50, crosslinking of mouse FcgRIV+ luciferase reporter effector cells came to 6.34 nM. Also, the IC50, blockade of Ca flux on mCCR8-expressing CHO cells in assay [1] was 19.3 nM. The concentration giving a half-maximal response (EC50) in assay [2] came to 4 nM; in assay [3], 6.44 nM; in assay [4], 6.16 nM.
